Tests used:
Assay in all cases: SPR, KD relative to WT C2;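 further: biacore SPR at 37 °C, anti-C2 mAbs captured via immobilised goat anti-human IgG, C2 alanine or serine surface mutants as analytes, 1:1 model fitted, double-referenced sensograms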
human C2 V722A = target: T1, human C2 V722A (human, UniProt P06681 21-752)
T1 sequence: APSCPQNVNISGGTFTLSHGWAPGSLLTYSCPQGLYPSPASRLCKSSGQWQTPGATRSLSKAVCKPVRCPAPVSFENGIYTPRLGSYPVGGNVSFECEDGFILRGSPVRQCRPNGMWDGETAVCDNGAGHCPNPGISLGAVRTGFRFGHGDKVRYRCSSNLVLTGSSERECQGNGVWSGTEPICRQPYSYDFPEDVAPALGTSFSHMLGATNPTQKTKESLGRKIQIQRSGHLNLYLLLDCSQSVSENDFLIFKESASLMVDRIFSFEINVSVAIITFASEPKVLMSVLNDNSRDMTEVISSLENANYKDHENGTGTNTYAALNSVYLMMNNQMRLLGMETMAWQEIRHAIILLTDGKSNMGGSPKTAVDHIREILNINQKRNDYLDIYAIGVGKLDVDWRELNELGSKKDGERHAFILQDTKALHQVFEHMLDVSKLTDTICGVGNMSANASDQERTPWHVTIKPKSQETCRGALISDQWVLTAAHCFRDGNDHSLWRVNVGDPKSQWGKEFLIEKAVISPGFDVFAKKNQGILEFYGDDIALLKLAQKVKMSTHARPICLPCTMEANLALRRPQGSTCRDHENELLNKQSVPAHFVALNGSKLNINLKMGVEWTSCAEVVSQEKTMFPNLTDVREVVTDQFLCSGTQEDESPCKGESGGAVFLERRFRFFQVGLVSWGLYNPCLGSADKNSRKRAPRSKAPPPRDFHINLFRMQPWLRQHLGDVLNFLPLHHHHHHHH

human C2 S278A = target: T2, human C2 S278A (human, UniProt P06681 21-752)
T2 sequence: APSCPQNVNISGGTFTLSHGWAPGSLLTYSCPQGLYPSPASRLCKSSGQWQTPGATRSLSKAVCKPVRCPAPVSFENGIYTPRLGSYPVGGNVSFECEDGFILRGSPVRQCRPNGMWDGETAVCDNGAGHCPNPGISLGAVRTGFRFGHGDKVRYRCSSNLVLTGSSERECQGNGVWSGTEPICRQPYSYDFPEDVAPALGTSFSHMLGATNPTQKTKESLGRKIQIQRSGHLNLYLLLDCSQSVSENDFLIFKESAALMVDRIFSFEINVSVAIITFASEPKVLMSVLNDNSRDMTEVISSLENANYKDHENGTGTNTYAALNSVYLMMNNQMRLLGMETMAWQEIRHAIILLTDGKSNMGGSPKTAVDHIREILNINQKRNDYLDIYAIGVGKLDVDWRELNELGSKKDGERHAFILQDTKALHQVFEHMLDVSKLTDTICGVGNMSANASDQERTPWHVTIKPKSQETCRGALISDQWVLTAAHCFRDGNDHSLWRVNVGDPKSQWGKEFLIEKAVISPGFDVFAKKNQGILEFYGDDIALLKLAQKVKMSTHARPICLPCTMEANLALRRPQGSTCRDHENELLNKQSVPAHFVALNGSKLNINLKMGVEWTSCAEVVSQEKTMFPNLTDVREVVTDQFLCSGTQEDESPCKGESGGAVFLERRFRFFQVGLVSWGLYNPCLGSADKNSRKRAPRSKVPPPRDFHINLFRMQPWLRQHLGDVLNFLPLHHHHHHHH

human C2 K329A = target: T3, human C2 K329A (human, UniProt P06681 21-752)
T3 sequence: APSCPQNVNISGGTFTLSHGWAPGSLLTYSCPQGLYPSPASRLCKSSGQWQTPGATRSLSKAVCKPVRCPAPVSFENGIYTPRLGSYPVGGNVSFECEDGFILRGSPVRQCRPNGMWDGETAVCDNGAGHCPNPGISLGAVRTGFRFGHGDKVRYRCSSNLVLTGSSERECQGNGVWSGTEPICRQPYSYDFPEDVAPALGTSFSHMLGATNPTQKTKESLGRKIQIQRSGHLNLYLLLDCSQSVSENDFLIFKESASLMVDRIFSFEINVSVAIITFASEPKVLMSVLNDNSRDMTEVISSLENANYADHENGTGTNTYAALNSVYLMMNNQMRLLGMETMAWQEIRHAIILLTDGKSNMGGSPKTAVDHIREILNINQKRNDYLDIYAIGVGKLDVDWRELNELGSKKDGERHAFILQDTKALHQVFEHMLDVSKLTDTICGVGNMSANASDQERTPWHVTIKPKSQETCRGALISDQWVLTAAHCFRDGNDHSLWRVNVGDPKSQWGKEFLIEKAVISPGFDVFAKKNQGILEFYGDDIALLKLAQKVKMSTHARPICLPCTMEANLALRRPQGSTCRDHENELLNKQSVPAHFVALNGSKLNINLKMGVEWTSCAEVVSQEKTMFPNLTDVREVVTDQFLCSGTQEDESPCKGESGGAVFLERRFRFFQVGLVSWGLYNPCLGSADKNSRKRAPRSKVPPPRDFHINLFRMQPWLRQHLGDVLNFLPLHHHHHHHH

human C2 G432A = target: T4, human C2 G432A (human, UniProt P06681 21-752)
T4 sequence: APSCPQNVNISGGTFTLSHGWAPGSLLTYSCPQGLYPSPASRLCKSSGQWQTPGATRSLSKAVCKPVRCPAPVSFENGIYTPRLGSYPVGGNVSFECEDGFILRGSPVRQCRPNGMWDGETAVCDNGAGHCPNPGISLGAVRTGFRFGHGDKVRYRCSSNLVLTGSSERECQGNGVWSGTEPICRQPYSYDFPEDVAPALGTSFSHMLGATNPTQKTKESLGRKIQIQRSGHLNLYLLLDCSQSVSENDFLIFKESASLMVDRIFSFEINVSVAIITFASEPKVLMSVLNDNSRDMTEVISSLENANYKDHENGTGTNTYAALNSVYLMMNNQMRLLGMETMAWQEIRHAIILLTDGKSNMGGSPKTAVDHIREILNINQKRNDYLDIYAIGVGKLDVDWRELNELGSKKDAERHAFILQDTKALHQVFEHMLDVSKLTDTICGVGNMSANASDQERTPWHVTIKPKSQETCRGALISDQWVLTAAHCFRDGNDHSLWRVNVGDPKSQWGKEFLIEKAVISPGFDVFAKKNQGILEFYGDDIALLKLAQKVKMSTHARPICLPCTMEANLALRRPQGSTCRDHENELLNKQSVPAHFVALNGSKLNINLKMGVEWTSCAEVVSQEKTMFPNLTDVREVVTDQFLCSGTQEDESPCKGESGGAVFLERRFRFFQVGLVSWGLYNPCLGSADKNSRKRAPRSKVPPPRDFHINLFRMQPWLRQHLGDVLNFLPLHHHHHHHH

B1: RF16-226 (antibody, human IgG4 S228P, lambda)
heavy: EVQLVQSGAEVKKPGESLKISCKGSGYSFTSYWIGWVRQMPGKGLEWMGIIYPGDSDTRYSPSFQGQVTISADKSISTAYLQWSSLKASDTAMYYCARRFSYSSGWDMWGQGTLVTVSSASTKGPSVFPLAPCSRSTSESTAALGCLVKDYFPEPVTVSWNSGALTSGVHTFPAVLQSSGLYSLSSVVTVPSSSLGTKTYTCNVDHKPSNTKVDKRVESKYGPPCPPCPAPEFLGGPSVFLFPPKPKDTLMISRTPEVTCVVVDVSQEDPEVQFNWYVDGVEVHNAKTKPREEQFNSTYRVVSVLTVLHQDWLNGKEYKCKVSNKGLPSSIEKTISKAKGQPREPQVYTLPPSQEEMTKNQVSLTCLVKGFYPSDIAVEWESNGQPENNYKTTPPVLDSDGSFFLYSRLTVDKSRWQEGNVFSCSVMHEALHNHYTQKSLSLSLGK
light: SYELTQPPSVSVSPGQTARITCSGDALTSKYVAWYQQKSGLAPLLVIYEDTRRPSGIPAKFSGSSSGSVATLTISGAHGDDEADYYCYSTDASGHQRVFGGGTKLTVLSQPKAAPSVTLFPPSSEELQANKATLVCLISDFYPGAVTVAWKADGSPVKAGVETTKPSKQSNNKYAASSYLSLTPEQWKSHRSYSCQVTHEGSTVEKTVAPTECS
notes: pH-dependent anti-C2 antibody from a phage display library; also called WT
Fold diff (human C2 V722A): 10 fold
Fold diff (human C2 S278A): 1 fold
Fold diff (human C2 K329A): 3 fold
Fold diff (human C2 G432A): 1 fold

— patent publication US20220332804A1 (CSL INNOVATION, published 2022)
